Biological target: T1, NRF1 (GST-NRF1, unphosphorylated) (Homo sapiens, UniProt Q16656 1-503)
T1 sequence: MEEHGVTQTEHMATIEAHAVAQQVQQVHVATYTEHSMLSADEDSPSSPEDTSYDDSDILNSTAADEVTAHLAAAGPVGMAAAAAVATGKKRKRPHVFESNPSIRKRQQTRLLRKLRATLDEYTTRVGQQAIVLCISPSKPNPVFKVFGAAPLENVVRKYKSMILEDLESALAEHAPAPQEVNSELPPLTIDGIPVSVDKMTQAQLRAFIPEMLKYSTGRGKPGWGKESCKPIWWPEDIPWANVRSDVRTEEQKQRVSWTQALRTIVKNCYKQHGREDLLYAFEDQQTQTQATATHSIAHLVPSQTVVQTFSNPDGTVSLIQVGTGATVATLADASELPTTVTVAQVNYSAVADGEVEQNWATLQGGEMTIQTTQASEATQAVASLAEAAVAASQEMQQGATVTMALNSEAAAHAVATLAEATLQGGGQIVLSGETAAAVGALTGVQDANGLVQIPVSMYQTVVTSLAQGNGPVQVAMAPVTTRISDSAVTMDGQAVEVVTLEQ
Experiment: EMSA; 1-3 ug protein, poly[d(I-C)]; concentration-dependent; 5 mM Hepes pH 8.0, 20 nM DTT (so in the source), 30 mM NaCl, 10 ng DIG probe, 1 ug poly[d(I-C)], 0.5-2 ug GST-NRF1 (Methods; legend 1-3 ug), 5 min RT; 6% native TBE-PAGE, 0.5x TBE pH 8.3, 4 C
Settings: protein: recombinant; tags: N-terminal GST (pGEX6P1); chain copies: 2; label: DIG (DIG 3'-end labeling kit named); blunt

B1: Ehmt1 promoter probe (PKO 5019/PKO 5020) (dsDNA)
DNA 1: GCCACCTGGCCTCGCCTCCAGACGCAGGCGCCGCACGGGTGGGTC
DNA 2: GACCCACCCGTGCGGCGCCTGCGTCTGGAGGCGAGGCCAGGTGGC
B1: binds.
